Data from patent US5869336A, “Recombinant enzymatically active calpain expressed in a baculovirus system” (Cephalon, Inc., priority 1997, dated 1999).

T1: recombinant human calpain I (Homo sapiens, UniProt P07384)
T1 construct: the 2153 bp fragment containing the entire human 80 kDa calpain I cDNA; made in house; host or cells: Spodoptera frugiperda Sf21 cells, recombinant baculovirus (AcNPV-hCANPI-2-5, or coinfection with AcNPV-hCANP30-5 and AcNPV-hCANPI80-5)
T1 sequence (P07384 2-714): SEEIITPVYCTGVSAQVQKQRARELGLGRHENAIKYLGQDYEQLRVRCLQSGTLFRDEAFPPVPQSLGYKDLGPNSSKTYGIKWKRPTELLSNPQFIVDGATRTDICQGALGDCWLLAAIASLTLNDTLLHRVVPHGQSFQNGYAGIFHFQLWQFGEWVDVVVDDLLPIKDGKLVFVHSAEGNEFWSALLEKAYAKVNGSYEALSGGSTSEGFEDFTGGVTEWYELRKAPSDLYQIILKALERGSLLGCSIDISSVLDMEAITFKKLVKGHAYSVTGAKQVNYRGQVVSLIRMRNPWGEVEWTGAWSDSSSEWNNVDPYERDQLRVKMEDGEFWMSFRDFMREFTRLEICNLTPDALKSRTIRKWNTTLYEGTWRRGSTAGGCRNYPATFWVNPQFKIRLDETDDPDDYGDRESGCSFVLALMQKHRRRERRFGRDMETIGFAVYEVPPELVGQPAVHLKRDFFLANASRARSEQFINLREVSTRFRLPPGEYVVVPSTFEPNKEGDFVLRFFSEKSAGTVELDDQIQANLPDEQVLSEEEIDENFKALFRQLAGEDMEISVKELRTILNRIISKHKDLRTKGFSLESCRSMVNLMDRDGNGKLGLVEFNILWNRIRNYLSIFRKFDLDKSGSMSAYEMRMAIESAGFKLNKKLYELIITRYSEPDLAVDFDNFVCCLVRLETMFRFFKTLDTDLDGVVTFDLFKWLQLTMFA
T1 sequence (P04632 1-268 partner): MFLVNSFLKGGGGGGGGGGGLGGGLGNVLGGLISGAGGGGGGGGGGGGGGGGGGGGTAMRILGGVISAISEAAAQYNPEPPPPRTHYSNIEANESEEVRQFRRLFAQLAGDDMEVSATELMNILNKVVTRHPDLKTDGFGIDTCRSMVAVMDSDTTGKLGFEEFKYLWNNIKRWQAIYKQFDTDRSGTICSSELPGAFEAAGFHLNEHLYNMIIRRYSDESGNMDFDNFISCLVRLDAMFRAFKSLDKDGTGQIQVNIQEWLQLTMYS


Tests used:
[1] = biological target: T1, recombinant human calpain I; assay: Calcium-dependent protease activity (Succ-Leu-Tyr-AMC), recombinant calpain in Sf21 cell extracts; format: biochemical
Description: (§1) Sf21 cells were again seeded in 24 well plates at 1.5×10^5 cells/cm^2 and infected with either wild-type virus, coinfected with both AcNPV-hCANP30-5 and AcNPV-hCANPI80-5 (MOI of 5 for each virus), or infected with AcNPV-hCANPI-2-5 (MOI=5.7). The intracellular proteins were harvested at 40 hours after infection with 100 μl/well of the following lysis buffer: 50 mM Tris-HCl, pH 7.5, 50 mM NaCl, 1 mM EDTA, 1 mM EGTA, 5 mM β-mercaptoethanol, 0.1% Triton-100, followed by a 10 minutes centrifugation at 14,000×g at 4° C. to pellet the nuclei and some membranes. The in vitro enzyme activity of 20 μl of each extract (12.5-20 μg of total protein) was measured using the synthetic peptide substrate succinyl-leucine-tyrosine-aminomethyl coumarin (Succ-Leu-Tyr-AMC) at a 1 mM concentration with and without the addition of 5 mM CaCl2 following the procedure of Sasaki et al., J. Biol. Chem., 259:12489-12494 (1984), incorporated herein by reference. The activity obtained was compared with the enzyme activity of 2 μg of partially-purified native human calpain I produced according to the method of Siman et al., supra.
The activity in the presence of calcium was also measured with the addition of 12.5 μM calpain inhibitor I following the procedure disclosed in Sasaki et al., supra. The results are depicted in FIGS. 5a-d. In FIGS. 5a-d, open circles represent activity without calcium present. […]

[2] = tested on: 80 kDa subunit of recombinant calpain I; assay: Autolytic processing of the 80 kDa subunit to the 76 kDa form (immunoblot); format: biochemical, human; conditions: 6.7 mM CaCl2, 5 minutes, room temperature
Description: The 76 kDa form is produced in the presence of calcium by autolytic cleavage and is indicative of active enzyme. Lysates from cells either infected with wild-type AcNPV, coinfected with both AcNPV-hCANP30-5 and AcNPV-hCANPI80-5 or infected with AcNPV-hCANPI-2-5 prepared in Example 5 were incubated with or without the addition of 6.7 mM
CaCl2 for 5 minutes at room temperature, stopping the reaction by adding 6.7 mM EDTA and boiling the samples in SDS-PAGE-gel-loading buffer prior to storage at -70° C. The results of PAGE of the preparations are depicted in FIGS. 6a and b. In FIGS. 6a and b, the presence and absence of calcium is indicated by a "+" or "-", respectively. […] A single band is detected in all the samples incubated with calcium (lanes 2,5, and 7), and it comigrates with the 76 kDa native human calpain I (lane 2) that has also been incubated with calcium.
FIG. 6b contains the results of an immunoblot analysis of the same samples as in 6a except that the AB#34 antibody used was generated against the first five amino acids at the N-terminus of the 76 kDa fragment (anti-LGRHEC); (Saido et al., J. Biochem. 111:81-96 (1992)). […] Both the small amounts of the endogenously-cleaved recombinant calpain I large subunit and the single abundant 76 kDa band after the addition of calcium are detected by this antiserum.

[3] = tested on: recombinant 80 kDa subunit of calpain I; assay: Enzymatic activity of independently expressed 80 kDa subunit (Succ-Leu-Tyr-AMC); format: biochemical, human
Description: as §1
To determine the relative activity of the recombinantly produced 80 kDasubunit, the enzymatic activity of the subunit was examined in unfractionated extracts from Sf21 cells infected with AcNPV-hCANPI80-5. […] The same amount of enzyme activity for both the recombinant 80 kDa subunit and the recombinant calpain was then run on SDS-PAGE and the amount of each was qualitatively determined by immunoblot analysis as described in Example 4 above. As determined therefrom, approximately 4- to 5-fold more isolated 80 kDa protein is needed to give activity equivalent to that of the heterodimeric protein. Thus, the specific activity of the 80 kDa recombinant calpain I was experimentally determined to be approximately 20-25% that of the heterodimeric calpain I. This is approximately seven times greater than that of the 80 kDa subunit dissociated from native calpain I (Kikuchi et al., supra).

Molecule | calcium-dependent substrate hydrolysis ([1]; 1 mM Succ-Leu-Tyr-AMC, 5 mM CaCl2, FIGS. 5c, 5d) | specific activity compared with native calpain ([1]; data not shown) | autocatalytic activation by added calcium [2] | specific activity relative to heterodimeric calpain I ([3]; 80 kDa subunit alone vs recombinant heterodimer) | specific activity relative to 80 kDa subunit dissociated from native calpain I ([3]; comparison with Kikuchi et al.) | amount of protein needed to give activity equivalent to heterodimeric protein ([3]; isolated 80 kDa protein vs heterodimer)
recombinantly produced calpain: recombinant enzymatically active human calpain I, heterodimer of 80 kDa and 30 kDa subunits, expressed in a baculovirus-insect cell system (protein, UniProt P07384 2-714; P04632 1-268, looked up) Calpain-1 catalytic subunit: SEEIITPVYCTGVSAQVQKQRARELGLGRHENAIKYLGQDYEQLRVRCLQSGTLFRDEAFPPVPQSLGYKDLGPNSSKTYGIKWKRPTELLSNPQFIVDGATRTDICQGALGDCWLLAAIASLTLNDTLLHRVVPHGQSFQNGYAGIFHFQLWQFGEWVDVVVDDLLPIKDGKLVFVHSAEGNEFWSALLEKAYAKVNGSYEALSGGSTSEGFEDFTGGVTEWYELRKAPSDLYQIILKALERGSLLGCSIDISSVLDMEAITFKKLVKGHAYSVTGAKQVNYRGQVVSLIRMRNPWGEVEWTGAWSDSSSEWNNVDPYERDQLRVKMEDGEFWMSFRDFMREFTRLEICNLTPDALKSRTIRKWNTTLYEGTWRRGSTAGGCRNYPATFWVNPQFKIRLDETDDPDDYGDRESGCSFVLALMQKHRRRERRFGRDMETIGFAVYEVPPELVGQPAVHLKRDFFLANASRARSEQFINLREVSTRFRLPPGEYVVVPSTFEPNKEGDFVLRFFSEKSAGTVELDDQIQANLPDEQVLSEEEIDENFKALFRQLAGEDMEISVKELRTILNRIISKHKDLRTKGFSLESCRSMVNLMDRDGNGKLGLVEFNILWNRIRNYLSIFRKFDLDKSGSMSAYEMRMAIESAGFKLNKKLYELIITRYSEPDLAVDFDNFVCCLVRLETMFRFFKTLDTDLDGVVTFDLFKWLQLTMFA Calpain small subunit 1: MFLVNSFLKGGGGGGGGGGGLGGGLGNVLGGLISGAGGGGGGGGGGGGGGGGGGGGTAMRILGGVISAISEAAAQYNPEPPPPRTHYSNIEANESEEVRQFRRLFAQLAGDDMEVSATELMNILNKVVTRHPDLKTDGFGIDTCRSMVAVMDSDTTGKLGFEEFKYLWNNIKRWQAIYKQFDTDRSGTICSSELPGAFEAAGFHLNEHLYNMIIRRYSDESGNMDFDNFISCLVRLDAMFRAFKSLDKDGTGQIQVNIQEWLQLTMYS | calcium-dependent increase in substrate hydrolysis | similar | correctly autoprocessed the 80 kDa subunit to the "activated" 76 kDa form |  |  | 
80 kDa recombinant calpain I: recombinant 80 kDa subunit of human calpain I expressed in Sf21 cells infected with AcNPV-hCANPI80-5 (protein, UniProt P07384 2-714, looked up) Calpain-1 catalytic subunit: SEEIITPVYCTGVSAQVQKQRARELGLGRHENAIKYLGQDYEQLRVRCLQSGTLFRDEAFPPVPQSLGYKDLGPNSSKTYGIKWKRPTELLSNPQFIVDGATRTDICQGALGDCWLLAAIASLTLNDTLLHRVVPHGQSFQNGYAGIFHFQLWQFGEWVDVVVDDLLPIKDGKLVFVHSAEGNEFWSALLEKAYAKVNGSYEALSGGSTSEGFEDFTGGVTEWYELRKAPSDLYQIILKALERGSLLGCSIDISSVLDMEAITFKKLVKGHAYSVTGAKQVNYRGQVVSLIRMRNPWGEVEWTGAWSDSSSEWNNVDPYERDQLRVKMEDGEFWMSFRDFMREFTRLEICNLTPDALKSRTIRKWNTTLYEGTWRRGSTAGGCRNYPATFWVNPQFKIRLDETDDPDDYGDRESGCSFVLALMQKHRRRERRFGRDMETIGFAVYEVPPELVGQPAVHLKRDFFLANASRARSEQFINLREVSTRFRLPPGEYVVVPSTFEPNKEGDFVLRFFSEKSAGTVELDDQIQANLPDEQVLSEEEIDENFKALFRQLAGEDMEISVKELRTILNRIISKHKDLRTKGFSLESCRSMVNLMDRDGNGKLGLVEFNILWNRIRNYLSIFRKFDLDKSGSMSAYEMRMAIESAGFKLNKKLYELIITRYSEPDLAVDFDNFVCCLVRLETMFRFFKTLDTDLDGVVTFDLFKWLQLTMFA |  |  | entire amount of the 80 kDa subunit recombinant protein is capable of being autocatalytically activated | 20-25% | approximately seven | 4- to 5 fold
